The assay deals with SARS-CoV-2 prototype (PT) S NTD, human Fc-tagged (SARS-CoV-2). Briefly: SPR. For orientation: SPR reads the build-up and loss of mass on a sensor chip optically.

B1: nanobody N235, His-tagged (VHH)
VHH: QVQLQESGGGLVQPGGSLRLSCAASGLIISRYDMSWYRQAPGKERELVATTPIPAARPQYADSVKGRFTISRDNAKNTVSLQMNSLKPEDTAVYYCNLGPESQDHNYNYWGQGTQVTVSS
On to B1, for which the dissociation rate constant (koff) was 0.00024 s⁻¹.

One may read the koff as the rate constant with which the complex falls apart. A high value points to fast dissociation.
